Series [1] deals with O=[N+]([O-])c1ccc(O[C@@H]2O[C@@H](CO)[C@H](O)[C@H]2O)cc1. Kind of series: purified protein. Conditions: pH 5.5 McIlvaine buffer, 50 °C.
The target in series [2] is XacAbf51, GH51 α-L-arabinofuranosidase from Xanthomonas axonopodis pv. citri (X. axonopodis pv. citri str. 306). Kind of series: AUC.
Series [3] has the same target. Kind of series: SAXS.
For series [4] the target is unchanged. Kind of series: […]; 20 °C; […], pH 7.5; […].
Substrate in series [5]: O=[N+]([O-])c1ccc(O[C@@H]2O[C@@H](CO)[C@H](O)[C@H]2O)cc1
Kind of series: colorimetric p-nitrophenolate release, A400. It is filed as biochemical, Thermobacillus xylanilyticus. Conditions: pH 5.5 McIlvaine buffer, 50 °C. From the text: colorimetric p-nitrophenolate release, A400 on TxAbfD3

The results in this text go back to publication PMC6087011, “The mechanism by which a distinguishing arabinofuranosidase can cope with internal di-substitutions in arabinoxylans” (Biotechnology for Biofuels, 2018).

The Km is the concentration of substrate that gives half-maximal velocity. A word on the kcat: it is the maximal rate divided by the concentration of active sites. The term kcat/Km denotes the turnover number divided by the Michaelis constant. Usually stoichiometry N stands for a count of units in the complex or per binding partner.

In the case of “XacAbf51 (Xanthomonas citri subsp. citri 306)”, in series [1], the Michaelis-Menten constant (Km) amounted to 190 ± 10 µM, the turnover number (kcat) amounted to 56.4 ± 0.8 s⁻¹ and the catalytic efficiency (kcat/Km) is 300000 M⁻¹ s⁻¹.

On to “XacAbf51, GH51 α-L-arabinofuranosidase from Xanthomonas axonopodis pv. citri (enzyme)”, for which the stoichiometry N in series [2], in series [3] and in series [4] was 3 in each case.

B1: TxAbfD3 (Thermobacillus xylanilyticus) (protein)
chain: MNVASRVVVNADRVKGTINRNIYGHFSEHLGRCIYEGLWVGEDSPIPNTNGIRNDVLEALKQMKIPVLRWPGGCFADEYHWKDGVGPREKRKRMVNTHWGGVIENNHFGTHEFMMLCELLGCEPYISGNVGSGTVQEMSEWVEYITFDGESPMANWRRENGREKPWRIKYWGVGNENWGCGGNMRAEYYADLYRQFQTYLRNYGDNKLHKIACGANTADYHWTEVLMKQAAPFMHGLSLHYYTVPGPWEKKGPATGFTTDEWWVTLKKALFMDRLVTKHSAIMDVYDPDKRIDLIVDEWGTWYDVEPGTNPGFLYQQNSIRDALVAGATLHIFHRHCDRVRMANIAQLVNVLQSVILTEGERMLLTPTYHVFNMFKVHQDAELLDTWESVERTGPEGELPKVSVSASRAADGKIHISLCNLDFETGASVDIELRGLNGGVSATGTTLTSGRIDGHNTFDEPERVKPAPFRDFKLEGGHLNASLPPMSVTVLELTAG
Take B1: in series [5], the Km is 520 ± 60 µM, the turnover number (kcat) was 154 ± 4.2 s⁻¹ and the catalytic efficiency (kcat/Km) was determined as 300000 M⁻¹ s⁻¹.
